The test deals with lamin B1 (mouse (endogenous in mouse embryonic fibroblasts)) (UniProt P14733). Briefly: FRET or BRET.
Sequence of UniProt P14733 (P14733 whole entry): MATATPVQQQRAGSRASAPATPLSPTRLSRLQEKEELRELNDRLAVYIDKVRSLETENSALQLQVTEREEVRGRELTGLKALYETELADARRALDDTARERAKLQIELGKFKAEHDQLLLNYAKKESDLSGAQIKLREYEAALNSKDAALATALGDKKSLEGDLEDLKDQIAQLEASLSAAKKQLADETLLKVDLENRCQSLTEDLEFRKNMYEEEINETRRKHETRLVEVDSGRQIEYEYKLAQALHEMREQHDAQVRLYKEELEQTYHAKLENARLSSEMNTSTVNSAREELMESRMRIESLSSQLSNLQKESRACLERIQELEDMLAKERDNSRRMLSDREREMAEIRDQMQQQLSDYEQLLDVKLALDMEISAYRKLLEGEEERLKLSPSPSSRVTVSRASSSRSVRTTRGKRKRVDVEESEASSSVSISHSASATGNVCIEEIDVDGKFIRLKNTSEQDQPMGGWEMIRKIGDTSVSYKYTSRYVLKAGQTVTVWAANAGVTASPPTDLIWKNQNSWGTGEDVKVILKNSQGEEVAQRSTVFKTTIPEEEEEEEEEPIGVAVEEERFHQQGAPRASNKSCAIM

Substance “Oct-1–EGFP (from UniProt P14859 1-743) (natural protein)” gave an FRET efficiency of 4.63%.

These data come from paper PMC2615091.
